From publication doi:10.1101/2024.03.12.584494
Values belong to the substance of their own block, whether it stands above or below them.

Assays:
Test in all cases: co-IP
mGFP-PICK1 5K-E (mouse) = mGFP-PICK1 5K-E (mouse) (UniProt Q62083)
mCherry-PICK1 WT (mouse) = mCherry-PICK1 WT (mouse) (UniProt Q62083)
mGFP-KIBRA ΔC2 (mouse) = mGFP-KIBRA ΔC2 (mouse) (UniProt Q5SXA9)
mGFP-KIBRA ΔCCL (mouse) = mGFP-KIBRA ΔCCL (mouse) (UniProt Q5SXA9)
mGFP-KIBRA ΔCt (mouse) = mGFP-KIBRA ΔCt (mouse) (UniProt Q5SXA9)
mGFP-KIBRA ΔαBR (mouse) = mGFP-KIBRA ΔαBR (mouse) (UniProt Q5SXA9)
mCherry-KIBRA WT (mouse) = mCherry-KIBRA WT (mouse) (UniProt Q5SXA9)
Chain of mCherry-KIBRA WT (mouse) (Q5SXA9 whole entry): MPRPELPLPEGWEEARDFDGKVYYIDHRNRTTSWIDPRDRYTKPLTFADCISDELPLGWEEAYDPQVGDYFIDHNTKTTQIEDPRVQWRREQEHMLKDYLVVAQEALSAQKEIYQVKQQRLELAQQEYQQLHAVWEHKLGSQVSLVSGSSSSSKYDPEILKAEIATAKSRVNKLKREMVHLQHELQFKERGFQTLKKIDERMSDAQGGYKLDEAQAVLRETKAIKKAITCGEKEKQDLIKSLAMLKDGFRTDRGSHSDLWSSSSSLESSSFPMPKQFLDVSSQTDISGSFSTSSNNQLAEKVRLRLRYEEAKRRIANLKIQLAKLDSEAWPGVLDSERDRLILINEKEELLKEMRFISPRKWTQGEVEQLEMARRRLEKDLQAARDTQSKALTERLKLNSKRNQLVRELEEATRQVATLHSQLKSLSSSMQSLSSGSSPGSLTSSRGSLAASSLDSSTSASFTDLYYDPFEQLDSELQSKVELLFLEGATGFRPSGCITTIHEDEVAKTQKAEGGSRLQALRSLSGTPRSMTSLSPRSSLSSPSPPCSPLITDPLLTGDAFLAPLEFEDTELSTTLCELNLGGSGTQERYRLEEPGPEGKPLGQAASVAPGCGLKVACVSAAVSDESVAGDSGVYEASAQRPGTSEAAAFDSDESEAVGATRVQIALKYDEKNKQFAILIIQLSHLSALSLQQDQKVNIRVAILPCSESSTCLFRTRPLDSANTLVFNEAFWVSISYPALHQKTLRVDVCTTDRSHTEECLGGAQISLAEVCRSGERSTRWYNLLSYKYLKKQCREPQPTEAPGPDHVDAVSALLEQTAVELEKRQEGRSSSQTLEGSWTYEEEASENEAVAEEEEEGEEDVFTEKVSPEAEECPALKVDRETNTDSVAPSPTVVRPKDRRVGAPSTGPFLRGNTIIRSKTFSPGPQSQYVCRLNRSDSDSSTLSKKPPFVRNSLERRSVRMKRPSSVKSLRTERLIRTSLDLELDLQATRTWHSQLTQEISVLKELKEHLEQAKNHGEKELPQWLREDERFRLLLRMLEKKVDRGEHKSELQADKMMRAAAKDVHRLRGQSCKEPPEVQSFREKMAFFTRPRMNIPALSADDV

Chain of mCherry-PICK1 WT (mouse) (Q62083 whole entry): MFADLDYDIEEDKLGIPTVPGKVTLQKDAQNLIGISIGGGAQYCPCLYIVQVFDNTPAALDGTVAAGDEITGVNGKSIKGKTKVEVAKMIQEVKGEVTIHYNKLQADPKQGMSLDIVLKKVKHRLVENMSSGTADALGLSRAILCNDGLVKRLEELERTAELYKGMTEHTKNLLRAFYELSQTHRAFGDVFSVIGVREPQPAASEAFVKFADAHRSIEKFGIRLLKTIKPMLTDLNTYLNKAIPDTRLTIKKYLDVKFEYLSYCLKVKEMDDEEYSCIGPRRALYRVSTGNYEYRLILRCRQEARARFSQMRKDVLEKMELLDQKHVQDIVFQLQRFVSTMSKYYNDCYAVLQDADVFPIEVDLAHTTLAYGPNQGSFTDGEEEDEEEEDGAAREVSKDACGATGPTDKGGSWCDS
Chain of mGFP-PICK1 5K-E (mouse) (Q62083 whole entry): as above
Chain of mGFP-KIBRA ΔαBR (Q5SXA9 whole entry, stated change not applied): as the sequence (Q5SXA9 whole entry) above
Chain of mGFP-KIBRA ΔCCL (Q5SXA9 whole entry, stated change not applied): as the sequence (Q5SXA9 whole entry) above
Chain of mGFP-KIBRA ΔC2 (Q5SXA9 whole entry, stated change not applied): as the sequence (Q5SXA9 whole entry) above
Chain of mGFP-KIBRA ΔCt (Q5SXA9 whole entry, stated change not applied): as the sequence (Q5SXA9 whole entry) above
Chain of mGFP-PICK1 KD-AA (Q62083 whole entry): as the sequence (Q62083 whole entry) above
Chain of mGFP-PICK1 BAR (domain or fragment) (Q62083 whole entry, the tested form may be a part): as the sequence (Q62083 whole entry) above
Chain of Myc-GluA2 (P19491 22-883): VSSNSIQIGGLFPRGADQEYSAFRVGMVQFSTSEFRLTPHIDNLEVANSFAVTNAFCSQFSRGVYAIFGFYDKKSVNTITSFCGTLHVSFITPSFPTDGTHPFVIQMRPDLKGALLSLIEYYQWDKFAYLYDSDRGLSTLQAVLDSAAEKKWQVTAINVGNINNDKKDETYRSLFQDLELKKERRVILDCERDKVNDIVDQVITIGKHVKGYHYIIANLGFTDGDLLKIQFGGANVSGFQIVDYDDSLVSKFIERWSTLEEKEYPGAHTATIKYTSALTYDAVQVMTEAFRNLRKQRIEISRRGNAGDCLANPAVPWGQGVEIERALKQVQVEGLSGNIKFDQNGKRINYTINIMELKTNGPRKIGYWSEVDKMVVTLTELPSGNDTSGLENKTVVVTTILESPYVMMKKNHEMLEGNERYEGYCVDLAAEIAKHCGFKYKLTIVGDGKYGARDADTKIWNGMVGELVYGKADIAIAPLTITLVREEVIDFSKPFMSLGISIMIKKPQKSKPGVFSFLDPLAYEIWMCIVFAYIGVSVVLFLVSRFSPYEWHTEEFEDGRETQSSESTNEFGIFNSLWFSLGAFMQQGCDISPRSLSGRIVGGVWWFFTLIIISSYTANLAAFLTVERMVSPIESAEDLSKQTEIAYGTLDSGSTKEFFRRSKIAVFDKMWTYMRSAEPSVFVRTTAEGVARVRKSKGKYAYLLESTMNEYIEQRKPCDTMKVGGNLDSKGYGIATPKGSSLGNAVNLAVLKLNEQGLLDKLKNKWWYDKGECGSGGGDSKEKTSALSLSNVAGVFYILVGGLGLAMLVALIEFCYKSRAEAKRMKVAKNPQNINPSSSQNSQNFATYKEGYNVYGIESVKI
Chain of mGFP-KIBRA ΔWW (Q5SXA9 whole entry, stated change not applied): as the sequence (Q5SXA9 whole entry) above
Chain of mCherry-KIBRA WT (Q5SXA9 whole entry): as above

Substance: mCherry-KIBRA WT (from UniProt Q5SXA9 1-1104) (natural protein)
KIBRA signal with PICK1 5K-E normalized to +PICK1 WT (mGFP-PICK1 5K-E (mouse)): 0.63

Substance: mGFP-KIBRA ΔCt (from UniProt Q5SXA9 1-1104) (natural protein)
co-precipitated KIBRA normalized to WT sample from the same blot (mCherry-PICK1 WT (mouse)): 5.79
co-precipitated mGFP-KIBRA normalized to WT sample from the same blot (mGFP-KIBRA ΔCt (mouse)): 1

Substance: mGFP-KIBRA ΔWW (from UniProt Q5SXA9 1-1104) (natural protein)
co-precipitated KIBRA normalized to WT sample from the same blot (mCherry-PICK1 WT (mouse)): 1.87

Substance: mGFP-KIBRA ΔαBR (from UniProt Q5SXA9 1-1104) (natural protein)
co-precipitated KIBRA normalized to WT sample from the same blot (mCherry-PICK1 WT (mouse)): 1.84
co-precipitated mGFP-KIBRA normalized to WT sample from the same blot (mGFP-KIBRA ΔαBR (mouse)): 1.55

Substance: mGFP-PICK1 BAR (domain or fragment)
PICK1 pull down normalized to input and same-gel WT PICK1 (mCherry-KIBRA WT (mouse)): 2.06

Other lines, results leading:

GluA2 signal with PICK1 5K-E normalized to +PICK1 WT (mGFP-PICK1 5K-E (mouse)): 0.27
Substance: Myc-GluA2 (from UniProt P19491 22-883) (receptor)

co-precipitated KIBRA normalized to WT sample from the same blot (mCherry-PICK1 WT (mouse)): 1.08
co-precipitated mGFP-KIBRA normalized to WT sample from the same blot (mGFP-KIBRA ΔC2 (mouse)): 1.36
Substance: mGFP-KIBRA ΔC2 (from UniProt Q5SXA9 1-1104) (natural protein)

co-precipitated KIBRA normalized to WT sample from the same blot (mCherry-PICK1 WT (mouse)): 1.53
co-precipitated mGFP-KIBRA normalized to WT sample from the same blot (mGFP-KIBRA ΔCCL (mouse)): 1.6
Substance: mGFP-KIBRA ΔCCL (from UniProt Q5SXA9 1-1104) (natural protein)

PICK1 pull down normalized to input and same-gel WT PICK1 (mCherry-KIBRA WT (mouse)): 0.8
Substance: mGFP-PICK1 KD-AA (from UniProt Q62083 1-416) (natural protein)
